B1: DNA protection protein from Sulfolobus solfataricus (natural protein, UniProt P95855 1-188, looked up)
chain: MQEKPQEPKVVGVEILEKSGLDIKKLVDKLVKATAAEFTTYYYYTILRMHLTGMEGEGLKEIAEDARLEDRLHFELMTQRIYELGGGLPRDIRQLADISACSDAYLPENWKDPKEILKVLLEAEQCAIRTWKEVCDMTYGKDPRTYDLAQRILQEEIEHEAWFLELLYGRPSGHFRRSSPGNAPYSKK
notes: Carries an inorganic iron core; also called ssDps; S. solfataricus Dps; source: E. coli BL21(DE3), pet22b, ferrous salt added to the medium (biomineralized), purified; copies: 12
B2: Non-heme ferritin from Enterobacteriaceae (E. coli FTn) (natural protein, UniProt P0A998 1-165, looked up)
chain: MLKPEMIEKLNEQMNLELYSSLLYQQMSAWCSYHTFEGAAAFLRRHAQEEMTHMQRLFDYLTDTGNLPRINTVESPFAEYSSLDELFQETYKHEQLITQKINELAHAAMTNQDYPTFNFLQWYVSEQHEEEKLFKSIIDKLSLAGKSGEGLYFIDKELSTLDTQN
notes: Carries an inorganic iron core; also called EcFTn; source: E. coli BL21(DE3), pet22b, ferrous salt added to the medium (biomineralized), purified; copies: 24
B3: Bacterioferritin from Escherichia coli str. K-12 substr. MG1655 (natural protein)
chain: not shown
notes: Carries an inorganic iron core; also called EcBfr; Bfr; source: E. coli BL21(DE3), pet22b, ferrous salt added to the medium (biomineralized), purified; copies: 24

Molecular target: the molecule itself
Experiment: negative-stain TEM and DLS; purified biomineralized ferritin, 0.1 mg/mL; stained with 1% uranyl acetate, JEM-1400 80 kV TEM; DLS at 25 °C; assembly of the subunits into the protein cage

Binding result, binds:
B1, B2, B3

— publication PMC10764798, “A natural biogenic nanozyme for scavenging superoxide radicals” (Nature Communications, 2024)
